# This sample holds only a part of the variants without activity.
# B1: TPR 5TU (parent)
# chain: GGAUCUUCUCGAUCUAACAAAAAAGACAAAUCUGCCACAAAGCUUGAGAGCAUCUUCGGAUGCAGAGGCGGCAGCCUUCGGUGGCGCGAUAGCGCCAACGUUCUCAACUAUGACACGCAAAACGCGUGCUCCGUUGAAUGGAGUUUAUCAUG
# Variants of: B1
# Assay: polymerase ribozyme fitness, log enrichment relative to wild type (log ratio); higher = more active; in vitro selection for triplet polymerase activity
# In short: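 PCR was used to build mutant libraries for each subunit of a heterodimeric triplet polymerase ribozyme, which were then transcribed. A single in vitro selection round, in triplicate, used a frozen incubation at −7 °C and recovered extended constructs by gel excision, streptavidin beads and RT-PCR. Fitness is the logarithm of genotype enrichment relative to wild-type enrichment, averaged over replicates with inverse-variance weights. The logarithm is base 2, and after Illumina sequencing only genotypes with ≥10 input reads and ≥1 read per output were kept.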
row,Variant,polymerase ribozyme fitness (log ratio)
1,C8G A21C U77A G92A C118A G136U,≤ -4.2
2,C8A A19C C35G A52C C87G,≤ -4.2
3,U9C A52C G67A G74U G86U C93U A115G,≤ -4.2
4,U9A C35U A121U G136A,≤ -4.2
5,U7G C51U G88C G92U C95U G100U,≤ -4.2
6,C8A G62A G92A,≤ -4.2
7,U9C A97G,-2.82
8,C8A C96A A110U U111G,≤ -4.2
9,C8U A17G C36A G50C A115G,≤ -4.2
10,C8G A24C G65U C87A C95U C105G,≤ -4.2
11,C8U A73G G83A,≤ -4.2
12,U9G A39G U53A G83C C87A C108G U151A,≤ -4.2
13,C8G A39U G46U G68C C79U G83A U102A,≤ -4.2
14,C8A A20C A22G G42C U53A C95U,≤ -4.2
15,C8G U31C C32G G48A A91U A122C G133A,≤ -4.2
16,C10G C57A C108A A115G U134A G136U,≤ -4.2
17,C8A A19U G48C U56A C93U G140A A142G A150C,≤ -4.2
18,C8U U13C C27A G50A U61A G62U C93U A106C A110G C125G,≤ -4.2
19,U7G A41U U53A C54U U56A C57A G71U C95A G112C,≤ -4.2
20,C8G C10A A40C G67A C75A C87A,≤ -4.2
21,C8A C57A G74A C118U,≤ -4.2
22,U9C A26U C54U G92A,≤ -4.2
23,C10G A21U C87G A91U C95A,≤ -4.2
24,C8A C96A,-3.5

row,Variant,polymerase ribozyme fitness (log ratio)
1,C8A C57G U82A A98G,≤ -4.2
2,U9A U31G C36A C93G C103G G140C,≤ -4.2
3,C10A A40C U56A C108U G143C,≤ -4.2
4,C8U U9A C10U A17G A66G A91C,≤ -4.2
5,C8G G58A,-3.1
6,U7C G50A G58A G68A A97C G141C U146A,≤ -4.2
7,U7G C27U A37G C43A C57A G94A,≤ -4.2
8,U9G G65A G81U C95U,≤ -4.2
9,U9G A22G U31G A41G A91U C93U U135G,≤ -4.2
10,U7C G50U,-2.42
11,U9G A23U A26G A28G U61A G80A A120U G141U,≤ -4.2
12,C10A U31G G50A G58C C96A C116U,≤ -4.2
13,U9G C75G C76A C85G,≤ -4.2
14,U9G C14A C85U,-4.02
15,U7G C103A,-3.85
16,C8G A91U A142U,-3.92
17,C10A U45A C69U C72U,≤ -4.2
18,C10G A26U C43A G94C U127C G143U,≤ -4.2
19,U9G C85U,-3.41
20,U9G U15A A30U U33G G42C U101A C105G A110U C118U A119G U139A A147C A150G,≤ -4.2
21,C10G A12G G84A U109G G141A,≤ -4.2
22,C8G G48C,-4.08
23,C10A A17C C35U G59A A122U U146A,≤ -4.2
24,C8G G83A C99U,≤ -4.2

row,Variant,polymerase ribozyme fitness (log ratio)
1,C8U G11A G86A U109C C123A C132G,≤ -4.2
2,C10A C32G C38U C54U A142U,-4.12
3,C8A C38U C57U C79G C96G,≤ -4.2
4,C8G A29G G50U C85U C125A,≤ -4.2
5,C10A A39C C54U C76U C87A,≤ -4.2
6,C10A A40U G67U G81C C149G,≤ -4.2
7,U9A U53C A64U C87A G136U A150G,≤ -4.2
8,C8A G70C A89G G94C C116A A137G,≤ -4.2
9,U9G C14G A24G U55A U139A,≤ -4.2
10,U9C A28G C38A C54G G88C C103A,≤ -4.2
11,U9G A16U C32A C85G U135C G152U,≤ -4.2
12,U9A C27G A73U C93U U102G G117C,≤ -4.2
13,C8U A17G A39G G84U C116A C118G U139C,≤ -4.2
14,U9C A28G C57A C96G U151C,≤ -4.2
15,C8U G84U G117U G140C U146G,≤ -4.2
16,C10G A52C,≤ -4.2
17,U7C C93G,-4.04
18,U9C A37C A40G U53A C75U U77A A119U,≤ -4.2
19,C8A A12C,-3.07
20,C10G A22U,-3.34
21,C8G A22U C35G C69G G70C G92A,≤ -4.2
22,C8A C36A G68C C96U C99A G128C,≤ -4.2
23,C8G G94A,-3.64
24,U9A C87U,-2.96

row,Variant,polymerase ribozyme fitness (log ratio)
1,C10G A29U C95U C108A,≤ -4.2
2,U9A C10U U53A A66U C87A A119U G126A G141A,-4.03
3,C8A A41U C76U A98G C116G G143C,≤ -4.2
4,C8A C79U A120C C125G A142U U146C,≤ -4.2
5,U9G C35U G48U U56G A60C G74A C96G U104G A107U,≤ -4.2
6,C8U C63U G80A G84C C96U,≤ -4.2
7,U9A U13G A29C U82G G84U A91G G94U G128C G133A A138U,≤ -4.2
8,C8U C38G A60C A107G G141C U151C,≤ -4.2
9,C8A G83C C85G G140C A150C,≤ -4.2
10,C8G A29U,-4.04
11,C10A U15G C57U G83C,≤ -4.2
12,U9C A21C C57A C93A A115C,-4
13,C10A G25A A29U A89C G92U C108U A113U G117C,≤ -4.2
14,U9C G58A A98U,≤ -4.2
15,U7G A52U G140C,≤ -4.2
16,U9G U33G G34U G92A C105G C132U U139C,≤ -4.2
17,C8A G67U U77A G83U C87G U134A G141C U144G,≤ -4.2
18,C8G G34A G124A A137C,≤ -4.2
19,U7G C87U,-3.04
20,U7C C38A,-2.38
21,U9C C57U G83A A119U G124C,≤ -4.2
22,C8U A22U A40U A47C,≤ -4.2
23,C10A A19G C57A G59A U82A C85U G141C,≤ -4.2
24,C8A A29C A37C A47U A119G,≤ -4.2

row,Variant,polymerase ribozyme fitness (log ratio)
1,C10A U102G U139G A150U U151G,≤ -4.2
2,C8U C38U C69A G83A A91C C118U,≤ -4.2
3,C8A A23C A26C U33C U78G A98G U144G,≤ -4.2
4,C10A A52C C63U A91G A113U,≤ -4.2
5,C8G G81C G86A C132A,≤ -4.2
6,C10A A22C A73U C79G C87A A113G,≤ -4.2
7,C8U U31A C32G C54U G83U U104A A107C,≤ -4.2
8,U9C U31C A41C G48C A52U C93U C95A G140A,≤ -4.2
9,U7G A20C C38A G83A,-3.16
10,U9G U13C A24U A49C C51G A52C A73C U104A C108G,≤ -4.2
11,C8A C54U,-3.64
12,U9C C36A U45A A47C A49U A52G U55G G68U G80U G94U,≤ -4.2
13,C8A A17G A98G U144A,≤ -4.2
14,C10G A49G G59A A60U G88U A97U,≤ -4.2
15,C8U C87G G100C U139C C149G,≤ -4.2
16,C8A C87G,≤ -4.2
17,C8A C87U,-3.89
18,C10A A20U A21C A49C C51U C79U A110G,≤ -4.2
19,C8A G136A,-3.96
20,C8U A20C G50C G71A C96A A98G C114U U148C,≤ -4.2
21,U9A U78C G84U C99G A113U A115C G117U U135C U144A U148G,≤ -4.2
22,U9C C96U A110G,≤ -4.2
23,C8A A64G U82A A91U A97C A122G A142C,≤ -4.2
24,C8A G86U,-3.72

row,Variant,polymerase ribozyme fitness (log ratio)
1,U9G G11U U44A G50C C87A C105G,≤ -4.2
2,C8A C87A C99U,≤ -4.2
3,C8A G94C,-3.7
4,C8A A19C C72A C95A C96G C131U G136C,≤ -4.2
5,U9G C27U A41U G46C U90G C96G A119C A122C,≤ -4.2
6,C8G U31A U33G U53G U55G G94A G126C,≤ -4.2
7,C10A A39U U55A C57A U90G G92A,≤ -4.2
8,U7G A39U C69U C95U C129G,≤ -4.2
9,U7G C72U C87A A98U A138C,≤ -4.2
10,C10A G48C G59A C103G U104A C105U A113C U146A,≤ -4.2
11,C8A U55A,-3.18
12,C8A C76G G86U U109G G141U,≤ -4.2
13,C8U A26G U56A C76G C105U A106C C123U,≤ -4.2
14,C8G A23C A30U G59A C95A A119U G141C,≤ -4.2
15,C8G G70C G80A A91U U104C A120U,≤ -4.2
16,U9C G11A A23U C36U C51A G92C G117C,≤ -4.2
17,C10G A21G G59A,≤ -4.2
18,C10A C51G A52C G59A C75G,≤ -4.2
19,U9A A40U G59U U134A,≤ -4.2
20,C10G A22G C63U G81U G94C A147G U148A,≤ -4.2
21,C8G A16C C93U A137G,≤ -4.2
22,C8A G94A C95A,≤ -4.2
23,C8U A20C G50A U82G C93U C95U A142G,≤ -4.2
24,U9A A12U C114A C125A,≤ -4.2

row,Variant,polymerase ribozyme fitness (log ratio)
1,C8A A12G U13G C51A C57A G92U G124C U144C,≤ -4.2
2,C8G A23G A40G G67C C99U U102G U127C G143C,≤ -4.2
3,U7G C75G G86C,≤ -4.2
4,U9A G94A,-3.69
5,U9G C32A A40G A52G,≤ -4.2
6,U9G C27U U55A C85G C95G C123G G140U,≤ -4.2
7,U9A A28U A66G C79G C93U,≤ -4.2
8,U9G A19U,-4.09
9,C8A U15G G59C C114U A138G,≤ -4.2
10,C8A C85U C116U G141A,≤ -4.2
11,U9G A17C A22U A29G G50A G68A,≤ -4.2
12,C10G C43G U55A G83A G92C C125A,≤ -4.2
13,U7G A23C A47C U53A C116A,≤ -4.2
14,C8G U15G A17G C18U A20C C32G A73G C93U C125U,≤ -4.2
15,U7G U31A C57U G94C U135C G140U U148C,≤ -4.2
16,C8A U15G U55A A73U A91G G140A,≤ -4.2
17,U9C U82A G92U C116U U134G,≤ -4.2
18,U9C A21U A28C G50C G94U U102C,-4.16
19,C10G A22C C35U G86U A115G G124A,≤ -4.2
20,C8G A41U A49G C95U A147U,≤ -4.2
21,C8U A19G C79U C85G,≤ -4.2
22,C8U U31G A40G G42U A52C C79G G84A C103A G133A U148G,≤ -4.2
23,U9A A22G C36A A39C G65U C87U C95A G126A G136A U139C,≤ -4.2

# Source: the RNAGym collection of RNA variant scans (doi:10.1073/pnas.2313332121)
